Biological target: T1, dCREB2-a (Drosophila melanogaster) (UniProt Q9VWW0)
T1 sequence: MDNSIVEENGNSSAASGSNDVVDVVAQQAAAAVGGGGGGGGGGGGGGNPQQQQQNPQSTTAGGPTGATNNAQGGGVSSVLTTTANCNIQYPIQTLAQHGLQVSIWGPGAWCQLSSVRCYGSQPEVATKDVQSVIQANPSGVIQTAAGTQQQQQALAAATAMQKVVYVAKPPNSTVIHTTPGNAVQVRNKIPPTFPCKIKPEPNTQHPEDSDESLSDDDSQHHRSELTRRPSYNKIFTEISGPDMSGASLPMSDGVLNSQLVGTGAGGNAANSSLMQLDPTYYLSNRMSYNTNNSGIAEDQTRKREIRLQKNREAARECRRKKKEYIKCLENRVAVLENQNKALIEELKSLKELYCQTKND
Test: cell_activity
Conditions: F9 cells, with PKA, relative to PKA alone

“D(-71) CAT somatostatin promoter CRE fragment” showed an activity of 5.4 fold.
